From FireProtDB (doi:10.1021/bi972394l) come the findings set out here.

Several values for one entry are separate records, joined by “and”; a condition that tells them apart may be missing. Equal values may be shown once.

The labels stand for the following.
B1: Superoxide dismutase [Mn], mitochondrial, P04179 (parent)
chain: MLSRAVCGTSRQLAPVLGYLGSRQKHSLPDLPYDYGALEPHINAQIMQLHHSKHHAAYVNNLNVTEEKYQEALAKGDVTAQIALQPALKFNGGGHINHSIFWTNLSPNGGGEPKGELLEAIKRDFGSFDKFKEKLTAASVGVQGSGWGWLGFNKERGHLQIAACPNQDPLQGTTGLIPLLGIDVWEHAYYLQYKNVRPDYLKAIWNVINWENVTERYMACKK

One data set covers variants of B1. Particulars: Homo sapiens; pH 7.8; 88.9 °C; Thermal; DSC; potassium phosphate 2 mM; transition: 2; reversible: Yes; structure 1N0J; whole UniProt chain shown.
Take MLSRAVCGTSRQLAPVLGYLGSRQKHSLPDLPYDYGALEPHINAQIMQLHHSKHHAAFVNNLNVTEEKYQEALAKGDVTAQIALQPALKFNGGGHINHSIFWTNLSPNGGGEPKGELLEAIKRDFGSFDKFKEKLTAASVGVQGSGWGWLGFNKERGHLQIAACPNQDPLQGTTGLIPLLGIDVWEHAYYLQYKNVRPDYLKAIWNVINWENVTERYMACKK [Y58F]: the “ddG of mutation (higher = less stable)” value is -3.1 kcal/mol.

Staying with this data set, now noted: Homo sapiens; pH 7.8; Thermal; DSC; potassium phosphate 2 mM; transition: 2; reversible: Yes; structure 1N0J; whole UniProt chain shown.
With MLSRAVCGTSRQLAPVLGYLGSRQKHSLPDLPYDYGALEPHINAQIMQLHHSKHHAAFVNNLNVTEEKYQEALAKGDVTAQIALQPALKFNGGGHINHSIFWTNLSPNGGGEPKGELLEAIKRDFGSFDKFKEKLTAASVGVQGSGWGWLGFNKERGHLQIAACPNQDPLQGTTGLIPLLGIDVWEHAYYLQYKNVRPDYLKAIWNVINWENVTERYMACKK [Y58F], the “unfolding enthalpy (calorimetric)” value is 351 kcal/mol and 197 kcal/mol.
